In paper PMC7190278 (Cell, 2020):
Where no end group is shown, it is not given here. [ ]: non-standard residue; d: D form. pS = N[C@@H](COP(=O)(O)O)C(=O)O

Legend:
[1] = target: T1, HA-tagged human NPM2 (nucleoplasmin 2) (human, UniProt Q86SE8 1-214); experiment: pull-down
T1 sequence (looked up): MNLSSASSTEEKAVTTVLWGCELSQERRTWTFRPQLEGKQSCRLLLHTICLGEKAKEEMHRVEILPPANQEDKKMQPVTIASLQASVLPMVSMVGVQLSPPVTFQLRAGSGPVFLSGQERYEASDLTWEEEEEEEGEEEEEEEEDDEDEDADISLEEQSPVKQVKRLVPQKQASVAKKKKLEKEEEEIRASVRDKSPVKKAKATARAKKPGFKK

[2] = target: HA-tagged human HIRA (human, UniProt P54198 1-1017); experiment: pull-down
HA-tagged human HIRA, sequence (P54198 whole entry): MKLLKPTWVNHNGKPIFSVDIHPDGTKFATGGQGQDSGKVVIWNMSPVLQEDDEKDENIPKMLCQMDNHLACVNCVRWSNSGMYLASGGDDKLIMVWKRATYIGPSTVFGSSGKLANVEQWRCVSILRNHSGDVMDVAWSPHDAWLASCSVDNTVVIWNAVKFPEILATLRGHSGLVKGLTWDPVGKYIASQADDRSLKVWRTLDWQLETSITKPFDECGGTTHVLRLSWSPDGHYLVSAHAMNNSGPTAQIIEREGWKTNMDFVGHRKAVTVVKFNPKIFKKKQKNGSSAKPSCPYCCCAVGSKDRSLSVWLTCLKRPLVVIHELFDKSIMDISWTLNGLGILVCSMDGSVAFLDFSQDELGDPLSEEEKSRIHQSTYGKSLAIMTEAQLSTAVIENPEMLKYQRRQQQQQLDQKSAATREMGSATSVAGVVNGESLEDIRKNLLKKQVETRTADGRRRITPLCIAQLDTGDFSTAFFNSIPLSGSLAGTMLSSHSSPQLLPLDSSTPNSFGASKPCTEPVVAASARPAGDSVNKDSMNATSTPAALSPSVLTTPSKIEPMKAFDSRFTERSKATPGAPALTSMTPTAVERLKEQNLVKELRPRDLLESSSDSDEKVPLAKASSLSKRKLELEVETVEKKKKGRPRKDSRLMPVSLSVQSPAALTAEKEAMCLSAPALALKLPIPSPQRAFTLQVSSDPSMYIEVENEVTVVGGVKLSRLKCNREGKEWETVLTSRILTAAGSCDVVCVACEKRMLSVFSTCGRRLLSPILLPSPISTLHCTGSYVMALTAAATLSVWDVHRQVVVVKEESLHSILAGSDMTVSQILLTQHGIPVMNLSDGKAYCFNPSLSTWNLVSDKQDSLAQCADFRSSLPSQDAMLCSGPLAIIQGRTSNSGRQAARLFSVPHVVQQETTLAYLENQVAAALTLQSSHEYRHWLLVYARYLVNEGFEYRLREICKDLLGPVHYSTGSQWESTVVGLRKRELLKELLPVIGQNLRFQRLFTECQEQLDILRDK

B1: Protamine 1 (P1), wild type, phosphorylated by SRPK1 (peptide, UniProt P02319 1-51, looked up)
chain: MARYRCCR[pS]KSRSRCRRRRRRCRRRRRRCCRRRRRRCCRRRR[pS]YTIRCKKY
modifications: cysteine pairing not given here
binding result [1]: binds

B2: Protamine 1 (P1), wild type, not phosphorylated (peptide, UniProt P02319 1-51, looked up)
chain: MARYRCCRSKSRSRCRRRRRRCRRRRRRCCRRRRRRCCRRRRSYTIRCKKY
binding result [1]: binds

B3: Protamine 1 (P1) S9A S43A double mutant (peptide, UniProt P02319 1-51, looked up)
chain: MARYRCCRAKSRSRCRRRRRRCRRRRRRCCRRRRRRCCRRRRAYTIRCKKY
binding result [1]: binds

B4: Protamine 1 (P1) S43A, phosphorylated by SRPK1 (peptide, UniProt P02319 1-51, looked up)
chain: MARYRCCR[pS]KSRSRCRRRRRRCRRRRRRCCRRRRRRCCRRRRAYTIRCKKY
modifications: cysteine pairing not given here
binding result [2]: binds | binding result [1]: binds

B5: Protamine 1 (P1) S9A, not phosphorylated (peptide, UniProt P02319 1-51, looked up)
chain: MARYRCCRAKSRSRCRRRRRRCRRRRRRCCRRRRRRCCRRRRSYTIRCKKY
binding result [1]: binds

B6: Protamine 1 (P1) S9A, phosphorylated by SRPK1 (peptide, UniProt P02319 1-51, looked up)
chain: MARYRCCRAKSRSRCRRRRRRCRRRRRRCCRRRRRRCCRRRR[pS]YTIRCKKY
modifications: cysteine pairing not given here
binding result [2]: binds | binding result [1]: binds

B7: Protamine 1 (P1) S43A, not phosphorylated (peptide, UniProt P02319 1-51, looked up)
chain: MARYRCCRSKSRSRCRRRRRRCRRRRRRCCRRRRRRCCRRRRAYTIRCKKY
binding result [1]: binds
